Results on three molecules are retold here after PMC3089606, “The E. coli Anti-Sigma Factor Rsd: Studies on the Specificity and Regulation of Its Expression” (PLoS ONE, 2011).

Data set [1] relates to RNA polymerase holoenzyme Esigma38 (Escherichia coli). Nature of the data set: EMSA. Particulars: 1 uM Rsd; binding buffer, salt, pH and temperature not given in the material; heparin competitor in NAP footprints.
In data set [2] the target is T1, RNA polymerase sigma factor σ^70 (E. coli, UniProt P00579 1-613).
T1 construct: RNA polymerase sigma factor σ^70 (RpoD), E. coli; also called free σ^70; sigma D
Nature of the data set: cross-linking; 3 µg Rsd with 3 µg σ^70, σ^38 or Rsd (or each protein alone), 30 minutes in 15 µl 50 mM HEPES pH 7.4, 5% glycerol, 0.1 mM EDTA, 0.1 mM DTT; 0.02% glutaraldehyde, room temperature 30 minutes; SDS gel, Coomassie staining. Particulars: both partners purified.

Data set [3] concerns the molecule itself. Described as above.
Data set [4] deals with T2, RNA polymerase sigma factor σ^38 (E. coli, UniProt P13445 1-330).
T2 construct: stationary phase-specific sigma factor σ^38 (RpoS), E. coli; also called σ^s; RpoS
The experiment in a line: pull-down; biotinylated Rsd incubated with the protein of interest (molar ratios 1:1 or 1:3) for 1 hour in TGED buffer on ice, held on Streptavidine MicroBeads column, four washes, elution with SDS buffer; SDS gel, Coomassie and silver staining. The conditions noted are these: both partners purified.

Data set [5] has as its target T1, RNA polymerase sigma factor σ^70. The data set is described as above. Particulars: both partners purified.

T1 sequence (P00579 whole entry): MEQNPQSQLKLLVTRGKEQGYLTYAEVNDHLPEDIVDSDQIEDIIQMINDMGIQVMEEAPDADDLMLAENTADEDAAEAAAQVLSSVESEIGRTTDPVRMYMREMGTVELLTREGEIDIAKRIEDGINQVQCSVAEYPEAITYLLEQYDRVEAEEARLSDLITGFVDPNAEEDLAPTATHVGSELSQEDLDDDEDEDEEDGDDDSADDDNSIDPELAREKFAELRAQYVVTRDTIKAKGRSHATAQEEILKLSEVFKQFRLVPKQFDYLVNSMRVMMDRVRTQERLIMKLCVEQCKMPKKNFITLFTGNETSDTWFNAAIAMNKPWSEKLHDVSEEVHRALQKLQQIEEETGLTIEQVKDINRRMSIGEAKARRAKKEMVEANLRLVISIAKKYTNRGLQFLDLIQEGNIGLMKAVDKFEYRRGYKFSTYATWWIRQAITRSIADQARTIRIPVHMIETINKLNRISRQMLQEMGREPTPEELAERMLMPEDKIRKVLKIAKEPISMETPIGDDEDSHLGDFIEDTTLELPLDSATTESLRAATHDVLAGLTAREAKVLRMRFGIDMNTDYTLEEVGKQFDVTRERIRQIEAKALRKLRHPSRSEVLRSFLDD
T2 sequence (P13445 whole entry): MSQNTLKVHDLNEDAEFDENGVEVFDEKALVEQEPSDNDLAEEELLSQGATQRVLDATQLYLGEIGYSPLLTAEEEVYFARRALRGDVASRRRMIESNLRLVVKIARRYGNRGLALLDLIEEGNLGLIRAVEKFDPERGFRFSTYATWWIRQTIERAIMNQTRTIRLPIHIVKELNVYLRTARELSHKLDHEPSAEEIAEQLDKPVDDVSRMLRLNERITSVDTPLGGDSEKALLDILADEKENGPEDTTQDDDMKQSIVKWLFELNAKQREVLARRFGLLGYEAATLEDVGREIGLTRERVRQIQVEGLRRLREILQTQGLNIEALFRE

With fic promoter fragment, in data set [1], the binding signal (% of complex remaining) is 50.

B1: Rsd (regulator of sigma D), native protein (natural protein, E. coli, UniProt P0AFX4 1-158, looked up)
chain: MLNQLDNLTERVRGSNKLVDRWLHVRKHLLVAYYNLVGIKPGKESYMRLNEKALDDFCQSLVDYLSAGHFSIYERILHKLEGNGQLARAAKIWPQLEANTQQIMDYYDSSLETAIDHDNYLEFQQVLSDIGEALEARFVLEDKLILLVLDAARVKHPA
notes: Rsd (regulator of sigma D), E. coli; No tag is mentioned; also called native Rsd; anti-sigma factor Rsd; source: E. coli BL21DE3pLysS/pUC18-Rsd, purified (DEAE-Sephadex A25, P11-phosphocellulose, NH4SO4 precipitation)
Regarding B1, the binding result in data set [2] is “binds”. For the same molecule, the “stoichiometry N” value in data set [3] came out at 2.

B2: Biotinylated Rsd (natural protein, E. coli, UniProt P0AFX4 1-158, looked up)
chain: B1 chain
modifications: biotin (9 fold excess of Biotinyl-N-hydroxy-succinimide; modified residues not stated)
notes: Rsd (regulator of sigma D), E. coli; Held on Streptavidine MicroBeads through the biotin; also called Biotinylated-Rsd protein; immobilized Rsd; source: E. coli BL21DE3pLysS/pUC18-Rsd, purified, then biotinylated with Biotinyl-N-hydroxy-succinimide
In the case of B2, the binding result in data set [4] and in data set [5] was “binds” in each case.
